Laboratory results: patent US20140335077A1, “Compositions and Methods for the Treatment of Cancer Using IGF-IR Antagonists and MAPK/ERK Inhibitors” (priority 2013, published 2014)

Experiments:
Type in all cases: cell-based
ZR75-1 = test: PrestoBlue cell viability, anti-IGF-1R antibody with U0126, ZR75-1 (breast carcinoma); settings: ZR75-1 cells, 48 h
Procedure: (§1) Cells were incubated in 96 well tissue culture plates and cell viability was measured by PrestoBlue cell viability assay (Invitrogen, CA, USA) according to manufacturer's instructions. Fluorescence was measured with excitation at 560 nm and emission at 590 nm. Cell number was calculated from standard curves of fluorescence measurements from known numbers of cells. Triplicate cultures were performed on all experiments.
(§2) The effects of anti-IGF-1R antibodies/MEK inhibitor combination treatment on viability of different types of tumor cells were investigated using PrestoBlue cell viability assay (Invitrogen, CA, USA) according to manufacturer's instructions. (Table 3).
(§3) Cells were incubated in serum free medium for 12 h followed by pretreatment for 60 min without or with 0.5, 1, 3 or 5 μM of the ERK inhibitor U0126, and then treated without or with 100 ng/ml anti-IGF-1R antibodies (Figitumumab or αIR-3 (Calbiochem, US). Cells were incubated in 96 well tissue culture plates for 48 hours and cell viability was measured by PrestoBlue cell viability assay. Fluorescence was measured with excitation at 560 nm and emission at 590 nm. Cell number was calculated from standard curves of fluorescence measurements from known numbers of cells. Triplicate cultures were performed on all experiments. The inhibition induced by anti-IGF-1R antibodies treated cells was calculated as percentage of untreated cells.

OMM 2.3 = test: PrestoBlue cell viability, anti-IGF-1R antibody with U0126, OMM 2.3 (liver metastasis of uveal melanoma); settings: OMM 2.3 cells, 48 h
Procedure: as §1, §2, §3

Colo 205 = test: PrestoBlue cell viability, anti-IGF-1R antibody with U0126, Colo 205 (colon carcinoma); settings: Colo 205 cells, 48 h
Procedure: as §1, §2, §3

A549 = test: PrestoBlue cell viability, anti-IGF-1R antibody with U0126, A549 (lung cancer); settings: 48 h
Procedure: as §1, §2, §3

H1703 = test: PrestoBlue cell viability, anti-IGF-1R antibody with U0126, H1703 (lung cancer); settings: 48 h
Procedure: as §1, §2, §3

OCM-1 = test: PrestoBlue cell viability, anti-IGF-1R antibody with U0126, OCM-1 (uveal melanoma); settings: OCM-1 cells, 48 h
Procedure: as §1, §2, §3

SK-OV-3 = test: PrestoBlue cell viability, anti-IGF-1R antibody with U0126, SK-OV-3 (ovarian carcinoma); settings: SK-OV-3 cells, 48 h
Procedure: as §1, §2, §3

[1] = tested on: Ewing's sarcoma (ES) cell lines: SKES, RDES, CADO, A673 and SKNMC; test: Cell viability of Ewing's sarcoma cell lines (PrestoBlue); settings: 48 h
Procedure: (§4) FIG. 1A-FIG. 1C. Effects of Figitumumab (CP-751871 (CP)) treatment on cell viability in ES cell lines. (A) Cell lysates were prepared from the indicated cell lines and analyzed by WB for total IGF-1R expression and GAPDH as a loading control. […] Data correspond to the mean±SEM from three independent experiments. […] (C) Indicated cells were treated without and with 100 ng/ml CP for 48 h in the absence (SFM) or presence of 10% fetal bovine serum (Serum) and cell viability assayed by PrestoBlue reagent. […] Data correspond to the mean±SEM from three independent experiments. Statistical analysis compared with SKBR3: *P<0.05, **P<0.01, **P<0.001.
FIG. 6A-FIG. 6C. […] Cell lysates were prepared from the same samples and analyzed by WB for β-arrestin1 (βarr1) and GAPDH as a loading control. Signals were quantified by densitometry, normalized to GAPDH and presented as a percentage of the doxycycline untreated cells. […] During the experiment, cell lysates were collected at 10 min after CP stimulation and analyzed by WB for P-ERK and total ERK as a loading control and at 12 h after CP stimulation and analyzed by WB for IGF-1R and GAPDH as a loading control. Signals were quantified by densitometry, normalized to the loading control and presented as a percentage of the CP untreated cells. […]

[2] = tested on: SKBR3 and IGF-1R knockout MEF cells (R−); test: Cell viability of negative control cells (PrestoBlue); settings: 100 ng/ml, 48 h
Procedure: as §4, §1
IGF-1R expression was investigated in a panel of validated Ewing's sarcoma (ES) cell lines: SKES, RDES, CADO, A673 and SKNMC. Breast cancer cell line SKBR3, expressing low IGF-1R levels and IGF-1R knockout MEF cells (R−) were used as negative controls. […]

[3] = tested on: IGF-1R, AKT and ERK phosphorylation; test: IGF-1R signaling activation in ES cell lines (WB for P-IGF-1R, P-AKT, P-ERK)
[4] = U0126 0 μM (60 min pretreatment)
[5] = U0126 0.5 μM (60 min pretreatment)
[6] = U0126 1 μM (60 min pretreatment)
[7] = U0126 3 μM (60 min pretreatment)
[8] = U0126 5 μM (60 min pretreatment)
[9] = serum starved ES cells, stimulation up to 60 min

B1: CP-751,871: anti-IGF-1R antibody figitumumab (Pfizer), IGF-1R antagonist (antibody, chains of the INN, looked up)
heavy: EVQLLESGGGLVQPGGSLRLSCTASGFTFSSYAMNWVRQAPGKGLEWVSAISGSGGTTFYADSVKGRFTISRDNSRTTLYLQMNSLRAEDTAVYYCAKDLGWSDSYYYYYGMDVWGQGTTVTVSSASTKGPSVFPLAPCSRSTSESTAALGCLVKDYFPEPVTVSWNSGALTSGVHTFPAVLQSSGLYSLSSVVTVPSSNFGTQTYTCNVDHKPSNTKVDKTVERKCCVECPPCPAPPVAGPSVFLFPPKPKDTLMISRTPEVTCVVVDVSHEDPEVQFNWYVDGVEVHNAKTKPREEQFNSTFRVVSVLTVVHQDWLNGKEYKCKVSNKGLPAPIEKTISKTKGQPREPQVYTLPPSREEMTKNQVSLTCLVKGFYPSDIAVEWESNGQPENNYKTTPPMLDSDGSFFLYSKLTVDKSRWQQGNVFSCSVMHEALHNHYTQKSLSLSPG
light: DIQMTQFPSSLSASVGDRVTITCRASQGIRNDLGWYQQKPGKAPKRLIYAASRLHRGVPSRFSGSGSGTEFTLTISSLQPEDFATYYCLQHNSYPCSFGQGTKLEIKRTVAAPSVFIFPPSDEQLKSGTASVVCLLNNFYPREAKVQWKVDNALQSGNSQESVTEQDSKDSTYSLSSTLTLSKADYEKHKVYACEVTHQGLSSPVTKSFNRGEC
ZR75-1; [4]
  Percentage inhibition of antibody treated cells (100 ng/ml): 5%
ZR75-1; [5]
  Percentage inhibition of antibody treated cells (100 ng/ml): 9%
ZR75-1; [6]
  Percentage inhibition of antibody treated cells (100 ng/ml): 12%
ZR75-1; [7]
  Percentage inhibition of antibody treated cells (100 ng/ml): 12%
ZR75-1; [8]
  Percentage inhibition of antibody treated cells (100 ng/ml): 15%
OMM 2.3; [4]
  Percentage inhibition of antibody treated cells (100 ng/ml): 12%
OMM 2.3; [5]
  Percentage inhibition of antibody treated cells (100 ng/ml): 35%
OMM 2.3; [6]
  Percentage inhibition of antibody treated cells (100 ng/ml): 45%
OMM 2.3; [7]
  Percentage inhibition of antibody treated cells (100 ng/ml): 65%
OMM 2.3; [8]
  Percentage inhibition of antibody treated cells (100 ng/ml): 97%
Colo 205; [4]
  Percentage inhibition of antibody treated cells (100 ng/ml): 21%
Colo 205; [5]
  Percentage inhibition of antibody treated cells (100 ng/ml): 28%
Colo 205; [6]
  Percentage inhibition of antibody treated cells (100 ng/ml): 34%
Colo 205; [7]
  Percentage inhibition of antibody treated cells (100 ng/ml): 45%
Colo 205; [8]
  Percentage inhibition of antibody treated cells (100 ng/ml): 67%
A549; [4]
  Percentage inhibition of antibody treated cells (100 ng/ml): 40%
A549; [5]
  Percentage inhibition of antibody treated cells (100 ng/ml): 56%
A549; [6]
  Percentage inhibition of antibody treated cells (100 ng/ml): 77%
A549; [7]
  Percentage inhibition of antibody treated cells (100 ng/ml): 88%
A549; [8]
  Percentage inhibition of antibody treated cells (100 ng/ml): 98%
H1703; [4]
  Percentage inhibition of antibody treated cells (100 ng/ml): 10%
H1703; [5]
  Percentage inhibition of antibody treated cells (100 ng/ml): 15%
H1703; [6]
  Percentage inhibition of antibody treated cells (100 ng/ml): 25%
H1703; [7]
  Percentage inhibition of antibody treated cells (100 ng/ml): 28%
H1703; [8]
  Percentage inhibition of antibody treated cells (100 ng/ml): 32%
OCM-1; [4]
  Percentage inhibition of antibody treated cells (100 ng/ml): 22%
OCM-1; [5]
  Percentage inhibition of antibody treated cells (100 ng/ml): 28%
OCM-1; [6]
  Percentage inhibition of antibody treated cells (100 ng/ml): 35%
OCM-1; [7]
  Percentage inhibition of antibody treated cells (100 ng/ml): 46%
OCM-1; [8]
  Percentage inhibition of antibody treated cells (100 ng/ml): 55%
SK-OV-3; [4]
  Percentage inhibition of antibody treated cells (100 ng/ml): 17%
SK-OV-3; [5]
  Percentage inhibition of antibody treated cells (100 ng/ml): 25%
SK-OV-3; [6]
  Percentage inhibition of antibody treated cells (100 ng/ml): 35%
SK-OV-3; [7]
  Percentage inhibition of antibody treated cells (100 ng/ml): 55%
SK-OV-3; [8]
  Percentage inhibition of antibody treated cells (100 ng/ml): 67%
[1]; 100 ng/ml, presence or absence of serum, all ES cell lines
  Cell viability (cell number) of ES cell lines: decreased cell number
[1]; ES cell lines, U0126 pre-treatment 60 min, 100 ng/ml CP
  Sensitivity (cell viability) of combined treatment with MEK inhibitor U0126 versus CP-751,871 alone: increased sensitivity
[2]
  Cell viability of negative control cells: unaffected
[3]; [9]
  AKT phosphorylation: undetectable
  IGF-1R phosphorylation: undetectable
[3]; serum starved cells, up to 60 min, all ES cell lines
  ERK phosphorylation: clear ERK phosphorylation signals
